In patent publication US20160244497A1 (Amgen, published 2016):
Positions count from the first letter of the chain named. Names and notes keep the numbering of the source. Values joined by “and” are separate entries in the source; they are usually repeats but may differ in a detail not shown here. Equal entries are not always repeated.

B1: dually PEGylated FGF21 mutant E91C, G120C (ligand)
chain: MHPIPDSSPLLQFGGQVRQRYLYTDDAQQTEAHLEIREDGTVGGAADQSPESLLQLKALKPGVIQILGVKTSRFLCQRPDGALYGSLHFDPCACSFRELLLEDGYNVYQSEAHGLPLHLPCNKSPHRDPAPRGPARFLPLPGLPPAPPEPPGILAPQPPDVGSSDPLSMVGPSQGRSPSYAS
modifications: 20 kDa methoxy-PEG-maleimide on Cys 91 and on Cys 120
B2: dually PEGylated FGF21 mutant E37C, G170C (ligand)
chain: B1 chain with E38C, C92E, C121G, G171C
modifications: 20 kDa methoxy-PEG-maleimide on Cys 37 and on Cys 170
B3: dually PEGylated FGF21 mutant E37C, R77C (ligand)
chain: B1 chain with E38C, R78C, C92E, C121G
modifications: 20 kDa methoxy-PEG-maleimide on Cys 37 and on Cys 77
B4: N-terminally PEGylated wild-type FGF21 (20 kDa PEG) (ligand)
chain: B1 chain with C92E, C121G
modifications: one 20 kDa PEG on the N-terminus (alpha-amino group)
B5: dually PEGylated FGF21 mutant E37C, E91C (ligand)
chain: B1 chain with E38C, C121G
modifications: 20 kDa methoxy-PEG-maleimide on Cys 37 and on Cys 91
B6: dually PEGylated FGF21 mutant E37C, G120C (ligand)
chain: B1 chain with E38C, C92E
modifications: 20 kDa methoxy-PEG-maleimide on Cys 37 and on Cys 120
B7: dually PEGylated FGF21 mutant K69C, R175C (ligand)
chain: B1 chain with K70C, C92E, C121G, R176C
modifications: 20 kDa methoxy-PEG-maleimide on Cys 69 and on Cys 175
B8: dually PEGylated FGF21 mutant E91C, R175C (ligand)
chain: B1 chain with C121G, R176C
modifications: 20 kDa methoxy-PEG-maleimide on Cys 91 and on Cys 175
B9: dually PEGylated FGF21 mutant G120C, R175C (ligand)
chain: B1 chain with C92E, R176C
modifications: 20 kDa methoxy-PEG-maleimide on Cys 120 and on Cys 175
B10: dually PEGylated FGF21 mutant K69C, H125C (ligand)
chain: B1 chain with K70C, C92E, C121G, H126C
modifications: 20 kDa methoxy-PEG-maleimide on Cys 69 and on Cys 125
B11: dually PEGylated FGF21 mutant K69C, G120C (ligand)
chain: B1 chain with K70C, C92E
modifications: 20 kDa methoxy-PEG-maleimide on Cys 69 and on Cys 120
B12: dually PEGylated FGF21 mutant R77C, E91C (ligand)
chain: B1 chain with R78C, C121G
modifications: 20 kDa methoxy-PEG-maleimide on Cys 77 and on Cys 91
B13: dually PEGylated FGF21 mutant G120C, H125C (ligand)
chain: B1 chain with C92E, H126C
modifications: 20 kDa methoxy-PEG-maleimide on Cys 120 and on Cys 125
B14: dually PEGylated FGF21 mutant R77C, R175C (ligand)
chain: B1 chain with R78C, C92E, C121G, R176C
modifications: 20 kDa methoxy-PEG-maleimide on Cys 77 and on Cys 175
B15: dually PEGylated FGF21 mutant E91C, H125C (ligand)
chain: B1 chain with C121G, H126C
modifications: 20 kDa methoxy-PEG-maleimide on Cys 91 and on Cys 125
B16: dually PEGylated FGF21 mutant R77C, G120C (ligand)
chain: B1 chain with R78C, C92E
modifications: 20 kDa methoxy-PEG-maleimide on Cys 77 and on Cys 120
B17: dually PEGylated FGF21 mutant E37C, R175C (ligand)
chain: B1 chain with E38C, C92E, C121G, R176C
modifications: 20 kDa methoxy-PEG-maleimide on Cys 37 and on Cys 175
B18: dually PEGylated FGF21 mutant K69C, R77C (ligand)
chain: B1 chain with K70C, R78C, C92E, C121G
modifications: 20 kDa methoxy-PEG-maleimide on Cys 69 and on Cys 77
B19: dually PEGylated FGF21 mutant E37C, K69C (ligand)
chain: B1 chain with E38C, K70C, C92E, C121G
modifications: 20 kDa methoxy-PEG-maleimide on Cys 37 and on Cys 69
B20: dually PEGylated FGF21 mutant H125C, R175C (ligand)
chain: B1 chain with C92E, C121G, H126C, R176C
modifications: 20 kDa methoxy-PEG-maleimide on Cys 125 and on Cys 175
B21: dually PEGylated FGF21 mutant K69C, E91C (ligand)
chain: B1 chain with K70C, C121G
modifications: 20 kDa methoxy-PEG-maleimide on Cys 69 and on Cys 91
B22: dually PEGylated FGF21 mutant R77C, H125C (ligand)
chain: B1 chain with R78C, C92E, C121G, H126C
modifications: 20 kDa methoxy-PEG-maleimide on Cys 77 and on Cys 125
B23: dually PEGylated FGF21 mutant E37C, H125C (ligand)
chain: B1 chain with E38C, C92E, C121G, H126C
modifications: 20 kDa methoxy-PEG-maleimide on Cys 37 and on Cys 125
B24: Tethered Molecule of two FGF21 P171C polypeptides (20 kDa PEG linker) (ligand)
chain: B1 chain with C92E, C121G, P172C
modifications: Cys 171 of the two chains joined by one 20 kDa PEG bis-maleimide
B25: FGF21(K59R/K69R/K122R), 2 x 20k PEG (ligand)
chain: B1 chain with K60R, K70R, C92E, C121G, K123R
modifications: two 20k PEG (amine-specific): N-terminus and the one remaining lysine (Lys 56)
B26: FGF21(all K to all R, R36K), 2 x 20k PEG (ligand)
chain: B1 chain with R37K, K57R, K60R, K70R, C92E, C121G, K123R
modifications: two 20k PEG (amine-specific): N-terminus and Lys 36
B27: FGF21(K56/59/69R), 2 x 20k PEG (ligand)
chain: B1 chain with K57R, K60R, K70R, C92E, C121G
modifications: two 20k PEG (amine-specific): N-terminus and the one remaining lysine (Lys 122)
B28: FGF21(K56R/K69R/K122R), 2 x 20k PEG (ligand)
chain: B1 chain with K57R, K70R, C92E, C121G, K123R
modifications: two 20k PEG (amine-specific): N-terminus and the one remaining lysine (Lys 59)

What follows are binders tested against beta-klotho (assay: cell-based or functional assay).

EC50, ELK-luciferase assay [µM] | Binder
0.054 | B1
0.163 | B2
0.021 | B3
0.037 | B4
0.036 | B5
0.055 | B6
0.318 | B7
0.046 | B8
0.118 | B9
0.164 | B10
0.119 | B11
0.026 | B12
0.023 | B13
0.062 | B14
0.032 | B15
0.034 | B16
0.05 | B17
0.18 | B18
0.067 | B19
0.2 | B20
0.069 | B21
0.03 | B22
0.064 | B23

Target: beta-klotho
Assay: cell-based or functional assay
Remark: another data set of the same source

EC50, ELK-luciferase assay [µM] | Binder
0.00021 | B24

Target: beta-klotho
Assay: cell-based or functional assay
Remark: another data set of the same source

In Vitro Activity EC50, ELK-luciferase assay [µM] | Binder
0.499 | B25
0.073 | B26
0.0433 | B4
0.5 | B27
0.215 | B28

Target: beta-klotho
Assay: cell-based or functional assay
Remark: another data set of the same source

EC50, ELK-luciferase assay | Binder
0.0367 µM and 0.0433 µM and 0.0215 µM and 0.04 µM | B4
